B1: Androgen receptor (Homo sapiens), P10275 (parent)
chain: MEVQLGLGRVYPRPPSKTYRGAFQNLFQSVREVIQNPGPRHPEAASAAPPGASLLLLQQQQQQQQQQQQQQQQQQQQQQQETSPRQQQQQQGEDGSPQAHRRGPTGYLVLDEEQQPSQPQSALECHPERGCVPEPGAAVAASKGLPQQLPAPPDEDDSAAPSTLSLLGPTFPGLSSCSADLKDILSEASTMQLLQQQQQEAVSEGSSSGRAREASGAPTSSKDNYLGGTSTISDNAKELCKAVSVSMGLGVEALEHLSPGEQLRGDCMYAPLLGVPPAVRPTPCAPLAECKGSLLDDSAGKSTEDTAEYSPFKGGYTKGLEGESLGCSGSAAAGSSGTLELPSTLSLYKSGALDEAAAYQSRDYYNFPLALAGPPPPPPPPHPHARIKLENPLDYGSAWAAAAAQCRYGDLASLHGAGAAGPGSGSPSAAASSSWHTLFTAEEGQLYGPCGGGGGGGGGGGGGGGGGGGGGGGEAGAVAPYGYTRPPQGLAGQESDFTAPDVWYPGGMVSRVPYPSPTCVKSEMGPWMDSYSGPYGDMRLETARDHVLPIDYYFPPQKTCLICGDEASGCHYGALTCGSCKVFFKRAAEGKQKYLCASRNDCTIDKFRRKNCPSCRLRKCYEAGMTLGARKLKKLGNLKLQEEGEASSTTSPTEETTQKLTVSHIEGYECQPIFLNVLEAIEPGVVCAGHDNNQPDSFAALLSSLNELGERQLVHVVKWAKALPGFRNLHVDDQMAVIQYSWMGLMVFAMGWRSFTNVNSRMLYFAPDLVFNEYRMHKSRMYSQCVRMRHLSQEFGWLQITPQEFLCMKALLLFSIIPVDGLKNQKFFDELRMNYIKELDRIIACKRKNPTSCSRRFYQLTKLLDSVQPIARELHQFTFDLLIKSHMVSVDFPEMMAEIISVQVPKILSGKVKPIYFHTQ

Variants of: B1
Conditions: with daxx_human DAXX

Row | Variant | effect of a mutation on the interaction
1 | K388R;K521R | decreasing interaction strength
